According to patent US20150246136A1 (Bayer, published 2015):

target: Mesothelin (SwissProt reference Q13421-3) (Homo sapiens, UniProt Q13421 37-622); assay: cell-based or functional assay

Row | Binder | IC50 (nM), HT29 meso+ cells, MTT proliferation assay [nM]
1 | Example 94, conjugate of anti-mesothelin antibody MF-Ta (antibody, human IgG1, lambda, V domains shown, toxophore-linker on Cys sulfur, sites not given) VH: QVELVQSGAEVKKPGESLKISCKGSGYSFTSYWIGWVRQAPGKGLEWMGIIDPGDSRTRYSPSFQGQVTISADKSISTAYLQWSSLKASDTAMYYCARGQLYGGTYMDGWGQGTLVTVSS VL: DIALTQPASVSGSPGQSITISCTGTSSDIGGYNSVSWYQQHPGKAPKLMIYGVNNRPSGVSNRFSGSKSGNTASLTISGLQAEDEADYYCSSYDIESATPVFGGGTKLTVLG | 0.6
2 | Example 95, conjugate of anti-mesothelin antibody MF-Ta (antibody, human IgG1, lambda, V domains shown, toxophore-linker on Cys sulfur, sites not given) VH: QVELVQSGAEVKKPGESLKISCKGSGYSFTSYWIGWVRQAPGKGLEWMGIIDPGDSRTRYSPSFQGQVTISADKSISTAYLQWSSLKASDTAMYYCARGQLYGGTYMDGWGQGTLVTVSS VL: DIALTQPASVSGSPGQSITISCTGTSSDIGGYNSVSWYQQHPGKAPKLMIYGVNNRPSGVSNRFSGSKSGNTASLTISGLQAEDEADYYCSSYDIESATPVFGGGTKLTVLG | 0.013
3 | Example 96, conjugate of anti-mesothelin antibody MF-Ta (antibody, human IgG1, lambda, V domains shown, toxophore-linker on Cys sulfur, sites not given) VH: QVELVQSGAEVKKPGESLKISCKGSGYSFTSYWIGWVRQAPGKGLEWMGIIDPGDSRTRYSPSFQGQVTISADKSISTAYLQWSSLKASDTAMYYCARGQLYGGTYMDGWGQGTLVTVSS VL: DIALTQPASVSGSPGQSITISCTGTSSDIGGYNSVSWYQQHPGKAPKLMIYGVNNRPSGVSNRFSGSKSGNTASLTISGLQAEDEADYYCSSYDIESATPVFGGGTKLTVLG | 25
4 | Example 97, conjugate of anti-mesothelin antibody MF-Ta (antibody, human IgG1, lambda, V domains shown, toxophore-linker on Cys sulfur, sites not given) VH: QVELVQSGAEVKKPGESLKISCKGSGYSFTSYWIGWVRQAPGKGLEWMGIIDPGDSRTRYSPSFQGQVTISADKSISTAYLQWSSLKASDTAMYYCARGQLYGGTYMDGWGQGTLVTVSS VL: DIALTQPASVSGSPGQSITISCTGTSSDIGGYNSVSWYQQHPGKAPKLMIYGVNNRPSGVSNRFSGSKSGNTASLTISGLQAEDEADYYCSSYDIESATPVFGGGTKLTVLG | 0.2
5 | Example 98, conjugate of anti-mesothelin antibody MF-Ta (antibody, human IgG1, lambda, V domains shown, toxophore-linker on Cys sulfur, sites not given) VH: QVELVQSGAEVKKPGESLKISCKGSGYSFTSYWIGWVRQAPGKGLEWMGIIDPGDSRTRYSPSFQGQVTISADKSISTAYLQWSSLKASDTAMYYCARGQLYGGTYMDGWGQGTLVTVSS VL: DIALTQPASVSGSPGQSITISCTGTSSDIGGYNSVSWYQQHPGKAPKLMIYGVNNRPSGVSNRFSGSKSGNTASLTISGLQAEDEADYYCSSYDIESATPVFGGGTKLTVLG | 1.7
6 | Example 99, conjugate of anti-mesothelin antibody MF-Ta (antibody, human IgG1, lambda, V domains shown, toxophore-linker on Cys sulfur, sites not given) VH: QVELVQSGAEVKKPGESLKISCKGSGYSFTSYWIGWVRQAPGKGLEWMGIIDPGDSRTRYSPSFQGQVTISADKSISTAYLQWSSLKASDTAMYYCARGQLYGGTYMDGWGQGTLVTVSS VL: DIALTQPASVSGSPGQSITISCTGTSSDIGGYNSVSWYQQHPGKAPKLMIYGVNNRPSGVSNRFSGSKSGNTASLTISGLQAEDEADYYCSSYDIESATPVFGGGTKLTVLG | 0.27
7 | Example 100, conjugate of anti-mesothelin antibody MF-Ta (antibody, human IgG1, lambda, V domains shown, toxophore-linker on Cys sulfur, sites not given) VH: QVELVQSGAEVKKPGESLKISCKGSGYSFTSYWIGWVRQAPGKGLEWMGIIDPGDSRTRYSPSFQGQVTISADKSISTAYLQWSSLKASDTAMYYCARGQLYGGTYMDGWGQGTLVTVSS VL: DIALTQPASVSGSPGQSITISCTGTSSDIGGYNSVSWYQQHPGKAPKLMIYGVNNRPSGVSNRFSGSKSGNTASLTISGLQAEDEADYYCSSYDIESATPVFGGGTKLTVLG | 2
8 | Example 101, conjugate of anti-mesothelin antibody MF-Ta (antibody, human IgG1, lambda, V domains shown, toxophore-linker on Cys sulfur, sites not given) VH: QVELVQSGAEVKKPGESLKISCKGSGYSFTSYWIGWVRQAPGKGLEWMGIIDPGDSRTRYSPSFQGQVTISADKSISTAYLQWSSLKASDTAMYYCARGQLYGGTYMDGWGQGTLVTVSS VL: DIALTQPASVSGSPGQSITISCTGTSSDIGGYNSVSWYQQHPGKAPKLMIYGVNNRPSGVSNRFSGSKSGNTASLTISGLQAEDEADYYCSSYDIESATPVFGGGTKLTVLG | 3
9 | Example 102, conjugate of anti-mesothelin antibody MF-Ta (antibody, human IgG1, lambda, V domains shown, toxophore-linker on Lys NH, sites not given) VH: QVELVQSGAEVKKPGESLKISCKGSGYSFTSYWIGWVRQAPGKGLEWMGIIDPGDSRTRYSPSFQGQVTISADKSISTAYLQWSSLKASDTAMYYCARGQLYGGTYMDGWGQGTLVTVSS VL: DIALTQPASVSGSPGQSITISCTGTSSDIGGYNSVSWYQQHPGKAPKLMIYGVNNRPSGVSNRFSGSKSGNTASLTISGLQAEDEADYYCSSYDIESATPVFGGGTKLTVLG | 7.2
10 | Example 103, conjugate of anti-mesothelin antibody MF-Ta (antibody, human IgG1, lambda, V domains shown, toxophore-linker on Cys sulfur, sites not given) VH: QVELVQSGAEVKKPGESLKISCKGSGYSFTSYWIGWVRQAPGKGLEWMGIIDPGDSRTRYSPSFQGQVTISADKSISTAYLQWSSLKASDTAMYYCARGQLYGGTYMDGWGQGTLVTVSS VL: DIALTQPASVSGSPGQSITISCTGTSSDIGGYNSVSWYQQHPGKAPKLMIYGVNNRPSGVSNRFSGSKSGNTASLTISGLQAEDEADYYCSSYDIESATPVFGGGTKLTVLG | 10
11 | Example 104, conjugate of anti-mesothelin antibody MF-Ta (antibody, human IgG1, lambda, V domains shown, toxophore-linker on Lys NH, sites not given) VH: QVELVQSGAEVKKPGESLKISCKGSGYSFTSYWIGWVRQAPGKGLEWMGIIDPGDSRTRYSPSFQGQVTISADKSISTAYLQWSSLKASDTAMYYCARGQLYGGTYMDGWGQGTLVTVSS VL: DIALTQPASVSGSPGQSITISCTGTSSDIGGYNSVSWYQQHPGKAPKLMIYGVNNRPSGVSNRFSGSKSGNTASLTISGLQAEDEADYYCSSYDIESATPVFGGGTKLTVLG | 1.8
12 | Example 105, conjugate of anti-mesothelin antibody MF-Ta (antibody, human IgG1, lambda, V domains shown, toxophore-linker on Lys NH, sites not given) VH: QVELVQSGAEVKKPGESLKISCKGSGYSFTSYWIGWVRQAPGKGLEWMGIIDPGDSRTRYSPSFQGQVTISADKSISTAYLQWSSLKASDTAMYYCARGQLYGGTYMDGWGQGTLVTVSS VL: DIALTQPASVSGSPGQSITISCTGTSSDIGGYNSVSWYQQHPGKAPKLMIYGVNNRPSGVSNRFSGSKSGNTASLTISGLQAEDEADYYCSSYDIESATPVFGGGTKLTVLG | 0.6
13 | Example 106, conjugate of anti-mesothelin antibody MF-Ta (antibody, human IgG1, lambda, V domains shown, toxophore-linker on Cys sulfur, sites not given) VH: QVELVQSGAEVKKPGESLKISCKGSGYSFTSYWIGWVRQAPGKGLEWMGIIDPGDSRTRYSPSFQGQVTISADKSISTAYLQWSSLKASDTAMYYCARGQLYGGTYMDGWGQGTLVTVSS VL: DIALTQPASVSGSPGQSITISCTGTSSDIGGYNSVSWYQQHPGKAPKLMIYGVNNRPSGVSNRFSGSKSGNTASLTISGLQAEDEADYYCSSYDIESATPVFGGGTKLTVLG | 0.8
14 | Example 107, conjugate of anti-mesothelin antibody MF-Ta (antibody, human IgG1, lambda, V domains shown, toxophore-linker on Cys sulfur, sites not given) VH: QVELVQSGAEVKKPGESLKISCKGSGYSFTSYWIGWVRQAPGKGLEWMGIIDPGDSRTRYSPSFQGQVTISADKSISTAYLQWSSLKASDTAMYYCARGQLYGGTYMDGWGQGTLVTVSS VL: DIALTQPASVSGSPGQSITISCTGTSSDIGGYNSVSWYQQHPGKAPKLMIYGVNNRPSGVSNRFSGSKSGNTASLTISGLQAEDEADYYCSSYDIESATPVFGGGTKLTVLG | 3
15 | Example 108, conjugate of anti-mesothelin antibody MF-Ta (antibody, human IgG1, lambda, V domains shown, toxophore-linker on Cys sulfur, sites not given) VH: QVELVQSGAEVKKPGESLKISCKGSGYSFTSYWIGWVRQAPGKGLEWMGIIDPGDSRTRYSPSFQGQVTISADKSISTAYLQWSSLKASDTAMYYCARGQLYGGTYMDGWGQGTLVTVSS VL: DIALTQPASVSGSPGQSITISCTGTSSDIGGYNSVSWYQQHPGKAPKLMIYGVNNRPSGVSNRFSGSKSGNTASLTISGLQAEDEADYYCSSYDIESATPVFGGGTKLTVLG | 0.74
16 | Example 109, conjugate of anti-mesothelin antibody MF-Ta (antibody, human IgG1, lambda, V domains shown, toxophore-linker on Cys sulfur, sites not given) VH: QVELVQSGAEVKKPGESLKISCKGSGYSFTSYWIGWVRQAPGKGLEWMGIIDPGDSRTRYSPSFQGQVTISADKSISTAYLQWSSLKASDTAMYYCARGQLYGGTYMDGWGQGTLVTVSS VL: DIALTQPASVSGSPGQSITISCTGTSSDIGGYNSVSWYQQHPGKAPKLMIYGVNNRPSGVSNRFSGSKSGNTASLTISGLQAEDEADYYCSSYDIESATPVFGGGTKLTVLG | 0.09
17 | Example 110, conjugate of anti-mesothelin antibody MF-Ta (antibody, human IgG1, lambda, V domains shown, toxophore-linker on Cys sulfur, sites not given) VH: QVELVQSGAEVKKPGESLKISCKGSGYSFTSYWIGWVRQAPGKGLEWMGIIDPGDSRTRYSPSFQGQVTISADKSISTAYLQWSSLKASDTAMYYCARGQLYGGTYMDGWGQGTLVTVSS VL: DIALTQPASVSGSPGQSITISCTGTSSDIGGYNSVSWYQQHPGKAPKLMIYGVNNRPSGVSNRFSGSKSGNTASLTISGLQAEDEADYYCSSYDIESATPVFGGGTKLTVLG | 0.002
18 | Example 111, conjugate of anti-mesothelin antibody MF-Ta (antibody, human IgG1, lambda, V domains shown, toxophore-linker on Cys sulfur, sites not given) VH: QVELVQSGAEVKKPGESLKISCKGSGYSFTSYWIGWVRQAPGKGLEWMGIIDPGDSRTRYSPSFQGQVTISADKSISTAYLQWSSLKASDTAMYYCARGQLYGGTYMDGWGQGTLVTVSS VL: DIALTQPASVSGSPGQSITISCTGTSSDIGGYNSVSWYQQHPGKAPKLMIYGVNNRPSGVSNRFSGSKSGNTASLTISGLQAEDEADYYCSSYDIESATPVFGGGTKLTVLG | 0.7
19 | Example 112, conjugate of anti-mesothelin antibody MF-Ta (antibody, human IgG1, lambda, V domains shown, toxophore-linker on Cys sulfur, sites not given) VH: QVELVQSGAEVKKPGESLKISCKGSGYSFTSYWIGWVRQAPGKGLEWMGIIDPGDSRTRYSPSFQGQVTISADKSISTAYLQWSSLKASDTAMYYCARGQLYGGTYMDGWGQGTLVTVSS VL: DIALTQPASVSGSPGQSITISCTGTSSDIGGYNSVSWYQQHPGKAPKLMIYGVNNRPSGVSNRFSGSKSGNTASLTISGLQAEDEADYYCSSYDIESATPVFGGGTKLTVLG | 0.018
20 | Example 113, conjugate of anti-mesothelin antibody MF-Ta (antibody, human IgG1, lambda, V domains shown, toxophore-linker on Lys NH, sites not given) VH: QVELVQSGAEVKKPGESLKISCKGSGYSFTSYWIGWVRQAPGKGLEWMGIIDPGDSRTRYSPSFQGQVTISADKSISTAYLQWSSLKASDTAMYYCARGQLYGGTYMDGWGQGTLVTVSS VL: DIALTQPASVSGSPGQSITISCTGTSSDIGGYNSVSWYQQHPGKAPKLMIYGVNNRPSGVSNRFSGSKSGNTASLTISGLQAEDEADYYCSSYDIESATPVFGGGTKLTVLG | 0.4
21 | Example 114, conjugate of anti-mesothelin antibody MF-Ta (antibody, human IgG1, lambda, V domains shown, toxophore-linker on Cys sulfur, sites not given) VH: QVELVQSGAEVKKPGESLKISCKGSGYSFTSYWIGWVRQAPGKGLEWMGIIDPGDSRTRYSPSFQGQVTISADKSISTAYLQWSSLKASDTAMYYCARGQLYGGTYMDGWGQGTLVTVSS VL: DIALTQPASVSGSPGQSITISCTGTSSDIGGYNSVSWYQQHPGKAPKLMIYGVNNRPSGVSNRFSGSKSGNTASLTISGLQAEDEADYYCSSYDIESATPVFGGGTKLTVLG | 0.6
